Reference: US20160355591A1

How the values were obtained:
[1] = target: HLA-DR (L243 antigen) on canine lymphocytes and canine lymphoma cells (dog); assay: flow cytometry, dog lymphoma aspirate; none 3.24; control antibody
[2] = target: HLA-DR (L243 antigen) on canine lymphocytes and canine lymphoma cells (dog); assay: flow cytometry, dog lymphoma aspirate; none 4.48; control antibody
[3] = target: HLA-DR (human leukocyte antigen-DR) on human lymphoma and leukemia cells and human lymphocytes (human); assay: indirect FACS, Raji cells, FITC-GAH Fc 2nd Ab; none 6.8; control antibody
[4] = target: HLA-DR (human leukocyte antigen-DR) on human lymphoma and leukemia cells and human lymphocytes (human); assay: indirect FACS, Daudi cells, FITC-GAH Fc 2nd Ab; none 3.1; control antibody
[5] = target: HLA-DR (human leukocyte antigen-DR) on human lymphoma and leukemia cells and human lymphocytes (human); assay: indirect FACS, Ramos cells, FITC-GAH Fc 2nd Ab; none 3.1; control antibody
[6] = target: HLA-DR (L243 antigen) on canine lymphocytes and canine lymphoma cells (dog); assay: flow cytometry, canine lymphoma aspirate 150836; none 3.2; control antibody
[7] = target: HLA-DR (L243 antigen) on canine lymphocytes and canine lymphoma cells (dog); assay: flow cytometry, canine lymphoma aspirate 150836; none 4.5; control antibody
[8] = target: HLA-DR (human leukocyte antigen-DR) on human lymphoma and leukemia cells and human lymphocytes (human); assay: indirect FACS, Namalwa cells, FITC-GAH Fc 2nd Ab; none 2.5; control antibody
[9] = target: HLA-DR (human leukocyte antigen-DR) on human lymphoma and leukemia cells and human lymphocytes (human); assay: indirect FACS, SU-DHL-6 cells, FITC-GAH Fc 2nd Ab; none 4.6; control antibody
[10] = target: HLA-DR (human leukocyte antigen-DR) on human lymphoma and leukemia cells and human lymphocytes (human); assay: indirect FACS, WSU-FSCCL cells, FITC-GAH Fc 2nd Ab; none 2.6; control antibody
[11] = target: HLA-DR (human leukocyte antigen-DR) on human lymphoma and leukemia cells and human lymphocytes (human); assay: indirect flow cytometry, RL cells, FITC-GAH Fc 2nd Ab; none 2.4; negative control antibody
[12] = target: HLA-DR (human leukocyte antigen-DR) on human lymphoma and leukemia cells and human lymphocytes (human); assay: indirect flow cytometry, Raji cells, FITC-GAH Fc 2nd Ab; none 6.9; negative control antibody
[13] = target: HLA-DR (human leukocyte antigen-DR) on human lymphoma and leukemia cells and human lymphocytes (human); assay: indirect flow cytometry, Daudi cells, FITC-GAH Fc 2nd Ab; none 3.2; negative control antibody
[14] = target: HLA-DR (human leukocyte antigen-DR) on human lymphoma and leukemia cells and human lymphocytes (human); assay: indirect flow cytometry, Ramos cells, FITC-GAH Fc 2nd Ab; none 3.1; negative control antibody
[15] = target: HLA-DR (human leukocyte antigen-DR) on human lymphoma and leukemia cells and human lymphocytes (human); assay: indirect flow cytometry, Namalwa cells, FITC-GAH 2nd Ab; none 2.52; control antibody (anti-CEA)
[16] = target: HLA-DR (human leukocyte antigen-DR) on human lymphoma and leukemia cells and human lymphocytes (human); assay: indirect flow cytometry, Namalwa cells, FITC-GAH Fc 2nd Ab; none 2.6; negative control antibody
[17] = target: HLA-DR (human leukocyte antigen-DR) on human lymphoma and leukemia cells and human lymphocytes (human); assay: indirect flow cytometry, SU-DHL-6 cells, FITC-GAH Fc 2nd Ab; none 4.6; negative control antibody
[18] = target: HLA-DR (human leukocyte antigen-DR) on human lymphoma and leukemia cells and human lymphocytes (human); assay: indirect flow cytometry, WSU-FSCCL cells, FITC-GAH Fc 2nd Ab; none 2.7; negative control antibody

- mean FL [1]: 3.24
- % Positive [2]: 4.63%
- geometric mean fluorescence [3]: 6.96
- geometric mean fluorescence [4]: 3.16
- geometric mean fluorescence [5]: 3.13
- mean FL [6]: 3.2
- % Positive [7]: 4.6%
- geometric mean fluorescence [8]: 2.36
- geometric mean fluorescence [9]: 4.94
- geometric mean fluorescence [10]: 2.66
- geometric mean fluorescence [11]: 2.8
- geometric mean fluorescence [12]: 7
- geometric mean fluorescence [13]: 3.2
- geometric mean fluorescence [14]: 3.1
- geometric mean fluorescence [15]: 2.49
- geometric mean fluorescence [16]: 2.4
- geometric mean fluorescence [17]: 4.9
- geometric mean fluorescence [18]: 2.7
B1: hMN-14 (labetuzumab, humanized anti-carcinoembryonic antigen IgG1) (antibody, INN chains, looked up, V domains shown)
VH: EVQLVESGGGVVQPGRSLRLSCSASGFDFTTYWMSWVRQAPGKGLEWIGEIHPDSSTINYAPSLKDRFTISRDNAKNTLFLQMDSLRPEDTGVYFCASLYFGFPWFAYWGQGTPVTVSS
VL: DIQLTQSPSSLSASVGDRVTITCKASQDVGTSVAWYQQKPGKAPKLLIYWTSTRHTGVPSRFSGSGSGTDFTFTISSLQPEDIATYYCQQYSLYRSFGQGTKVEIKR
